Experimental data as given in patent US20200109207A1 (CELLDEX THERAPEUTICS, published 2020).
Where a chain is given by its changes, count along the chain named. Blank lines part the entries; values can stand above or below the binder they belong to.

How the values were obtained:
[1] = target: T1, recombinant human CD27-FLAG-HIS (human, UniProt P26842 20-191); test: ELISA, plate coated with recombinant human CD27-FLAG-HIS
T1 sequence: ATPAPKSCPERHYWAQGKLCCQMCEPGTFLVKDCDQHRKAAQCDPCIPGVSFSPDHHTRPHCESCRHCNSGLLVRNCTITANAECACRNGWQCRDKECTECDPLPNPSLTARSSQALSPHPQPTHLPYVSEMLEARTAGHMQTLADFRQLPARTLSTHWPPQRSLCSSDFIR
Method: Microtiter plates were coated with recombinant human CD27-FLAG-HIS in PBS, and then blocked with 5% bovine serum albumin in PBS. Protein A purified human monoclonal antibodies were added at various concentrations and incubated at 37° C. The plates were washed with PBS/Tween and then incubated with a goat-anti-human IgG Fc-specific polyclonal reagent conjugated to horseradish peroxidase at 37° C. After washing, the plates were developed with HRP substrate, and analyzed at OD 450-650 nm using a microtiter plate reader.

[2] = target: T2, human CD27 on the cell surface (Ramos cells, human CD3+ T cells, CD27 reporter cell line) (human, UniProt P26842 20-260); test: flow cytometry, Ramos cells expressing human CD27, antibody 3 µg/ml
T2 construct: also called CD27 on cells
T2 sequence: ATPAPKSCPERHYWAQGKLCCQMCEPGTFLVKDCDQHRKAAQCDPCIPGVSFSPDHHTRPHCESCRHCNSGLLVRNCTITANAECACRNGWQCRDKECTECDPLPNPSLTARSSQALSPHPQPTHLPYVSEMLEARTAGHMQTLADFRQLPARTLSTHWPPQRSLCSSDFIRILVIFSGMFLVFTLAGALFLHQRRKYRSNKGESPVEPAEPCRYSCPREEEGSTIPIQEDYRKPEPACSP
Method: Antibodies were tested for binding to a human cell line expressing human CD27 on their surface. Protein A purified human monoclonal antibodies (3 μg/ml) were incubated with Ramos cells expressing human CD27 at room temperature on a plate shaker. After 20 minutes, the cells were washed with PBS containing 0.1% BSA and 0.05% NaN₃ (PBA) and the bound antibodies were detected by incubating the cells with a PE labeled goat anti-human IgG Fc-specific probe. The excess probe was washed from the cells with PBA and the cell associated fluorescence was determined by analysis using a FACSCanto II™ instrument (BD Biosciences, NJ, USA) according to the manufacturer's directions.

[3] = target: T1, recombinant human CD27-FLAG-HIS; test: bifunctional ELISA generally as in Example 16 (CD27-FLAG-HIS coated, PD-L1-msFc detected)
Method: Binding of bispecific constructs to CD27 and PD-L1 was assessed using a bifunctional ELISA. Antibody AbX is a known anti-PD-L1 monoclonal antibody. In brief, a microtiter plate was coated with human CD27-FLAG-HIS. Dilutions of the bispecific constructs were allowed to bind before adding human PD-L1-msFc that was detected with an HRP labeled goat anti-mouse IgG (Fc specific) antibody.

[4] = target: T3, full length wild type extracellular domain (ECD) of human CD27 (human, UniProt P26842 21-188); test: ELISA, plate coated with wild type CD27 ECD; supernatant of cells expressing mAb 2B3; anti-human IgG Fc-HRP
T3 construct: also called wild type huCD27; ECD of huCD27
T3 sequence: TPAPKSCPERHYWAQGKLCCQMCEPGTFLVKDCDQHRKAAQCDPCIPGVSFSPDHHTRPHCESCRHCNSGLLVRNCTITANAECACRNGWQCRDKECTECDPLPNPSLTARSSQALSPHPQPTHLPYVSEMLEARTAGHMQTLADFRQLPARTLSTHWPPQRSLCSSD
Method: (§1) The full length wild type extracellular domain (ECD) of human CD27 or human CD27 with mutated amino acids 85, 87, 88, and 89 (A85S, R87A, N88A and G89A; see FIG. 34) were coated to a plate, then blocked. Supernatant from transiently transfected cells expressing mAb 2B3 was added and binding was detected with an HRP conjugated goat anti-human IgG Fc polyclonal antibody.

[5] = target: T4, human CD27 ECD with mutated amino acids 85, 87, 88 and 89 (A85S, R87A, N88A and G89A) (human, UniProt P26842 21-188); test: ELISA, plate coated with mutated CD27 ECD; supernatant of transiently transfected cells expressing mAb 2B3; anti-human IgG Fc-HRP
T4 construct: also called mutated huCD27; mutated CD27 ECD
T4 chain: T3 sequence with A85S, R87A, N88A, G89A
Method: as §1

binding result [1]: binds
binding result [2]: binds
B1: anti-CD27 human monoclonal antibody 3C2 (antibody, V domains shown)
VH: QAQLQESGPGLVKPSETLSLTCTVSTGSISGYYWSWIRQPPGKGLEWIGYNYYSGSTNYNPSLKSRVTISIDTSKNQFSLKLNSVTAADTAVYYCARYPLIRGAFDYWGQGTLVTVSS
VL: not shown
notes: hybridoma supernatant (rat constant regions) in the cynomolgus CD27 ELISA

binding result [3]: binds
B2: CDX-527 (9H9×2B3 bispecific antibody: anti-PD-L1 IgG1 9H9 with anti-CD27 2B3 scFv) (bispecific antibody)
heavy: not shown
light: DIQMTQSPSTLSASVGDRVTITCRASQSISGWLAWYQQKPGKAPKLLIYKASSLESGVPSRFSGSGSGTEFTLTISSLQPDDFATYYCQQYYGSSRTFGQGTNVEIKRTVAAPSVFIFPPSDEQLKSGTASVVCLLNNFYPREAKVQWKVDNALQSGNSQESVTEQDSKDSTYSLSSTLTLSKADYEKHKVYACEVTHQGLSSPVTKSFNRGEC

binding result [1]: binds
binding result [2]: binds
binding result [4]: binds
binding result [5]: no binding
B3: anti-CD27 human monoclonal antibody 2B3 (antibody, V domains shown)
VH: QVQLVQSGAEVKKPGASVKVSCKASGYTFTGYYIHWVRQAPGQGLEWMGWINPNSGGTNSAQKFQDRVTITRVTSINTAYMELSRLRSDDTAVYFCARDRLVLPWFGEIFPDAFDIWGQGTLVTVSS
VL: EIVMTQSPATLSVSPGERATLSCRASQSIRSNLAWYQQKPGQAPRLLIYGASTRATGIPARFSGSGSGTEFTLTISSLQSENFAVYYCQQYNNWPLTFGGGTKVEIK
notes: In the cynomolgus CD27 ELISA hybridoma supernatants were used (human V regions with rat constant regions); also called mAb 2B3
